Measured values taken from article PMC5726920 (Nature chemical biology, 2017).

B1: human mitochondrial superoxide dismutase (enzyme)
chain: KHSLPDLPYDYGALEPHINAQIMQLHHSKHHAAYVNNLNVTEEKYQEALAKGDVTAQIALQPALKFNGGGHINHSIFWTNLSPNGGGEPKGELLEAIKRDFGSFDKFKEKLTAASVGVQGSGWGWLGFNKERGHLQIAACPNQDPLQGTTGLIPLLGIDVWEHAYYLQYKNVRPDYLKAIWNVINWENVTERYMACKK
B2: creatine kinase M from mouse heart (enzyme)
chain: not shown
B3: NAD(P)H-hydrate epimerase (enzyme)
chain: ASTVVKYLSQEEAQAVDQELFNEYQFSVDQLMELAGLSCATAIAKAYPPTSMSRSPPTVLVICGPGNNGGDGLVCARHLKLFGYEPTIYYPKRPNKPLFTALVTQCQKMDIPFLGEMPAEPMTIDELYELVVDAIFGFSFKGDVREPFHSILSVLKGLTVPIASIDIPSGWDVEKGNAGGIQPDLLISLTAPKKSATQFTGRYHYLGGRFVPPALEKKYQLNLPPYPDTECVYRLQ
B4: 3-hydroxyisobutyrate dehydrogenase (enzyme)
chain: ASKTPVGFIGLGNMGNPMAKNLMKHGYPLILYDVFPDVCKEFKEAGEQVASSPAEVAEKADRIITMLPSSMNAVEVYSGANGILKKVKKGSLLIDSSTIDPSVSKELAKEVEKMGAVFMDAPVSGGVGAARSGNLTFMVGGVEDEFAAAQELLECMGSNVVYCGAVGTGQSAKICNNMLLAISMIGTAEAMNLGIRSGLDPKLLAKILNMSSGRCWSSDTYNPVPGVMHGVPSSNNYQGGFGTTLMAKDLGLAQDSATSTKTPILLGSLAHQIYRMMCSKGYSKKDFSSVFQYLREEEPF
B5: mitochondrial malate dehydrogenase (enzyme)
chain: AKVAVLGASGGIGQPLSLLLKNSPLVSRLTLYDIAHTPGVAADLSHIETKAAVKGYLGPEQLPDCLKGCDVVVIPAGVPRKPGMTRDDLFNTNATIVATLTAACAQHCPEAMICVIANPVNSTIPITAEVFKKHGVYNPNKIFGVTTLDIVRANTFVAELKGLDPARVNVPVIGGHAGKTIIPLISQCTPKVDFPQDQLTALTGRIQEAGTEVVKAKAGAGSATLSMAYAGARFVFSLVDAMNGKEGVVECSFVKSQETECTYFSTPLLLGKKGIEKNLGIGKVSSFEEKMISDAIPELKASIKKGEDFVKTLK
B6: murine cytosolic aspartate aminotransferase (enzyme)
chain: MAPPSVFAQVPQAPPVLVFKLTADFRDDPDPRKVNLGVGAYRTDESQPWVLPVVRKVEQKIANDNSLNHEYLPILGLAEFRSCASRLVLGDNSLAIRENRVGGVQSLGGTGALRIGADFLGRWYNGTDNKNTPIYVSSPTWENHNAVFSAAGFKDIRPYCYWDAEKRGLDLQGFLNDLENAPEFSIFVLHACAHNPTGTDPTPEQWKQIAAVMQRRFLFPFFDSAYQGFASGDLEKDAWAIRYFVSEGFELFCAQSFSKNFGLYNERVGNLTVVGKESDSVLRVLSQMEKIVRITWSNPPAQGARIVAATLSDPELFKEWKGNVKTMADRILTMRSELRARLEALKTPGTWSHITEQIGMFSFTGLNPKQVEYLVNEKHIYLLPSGRINMCGLTTKNLDYVATSIHEAVTKIQ

Target: the molecule itself
Test: native MS

Row | Protein | stoichiometry N
1 | B1 | 4
2 | B2 | 2
3 | B3 | 2
4 | B4 | 4
5 | B5 | 2
6 | B6 | 2
